Test results published in the supplement of paper PMC9732359.
± gives the uncertainty stated by the source.

Experiment: protein stability index of a GFP-peptide fusion (yeast GPS) (PSI 1-4); higher = more stable; sorted into four equal gates, so the index is relative within each strain
Outline: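 Tiled yeast protein peptides of 17 residues were each joined downstream of GFP, on plasmids that also express Cherry. The pooled library was maintained in yeast, and mid-log cultures in leucine-free medium were sorted into four equal gates on the GFP/Cherry ratio. Plasmids from every gate were amplified by PCR and sequenced on Illumina, with barcodes linking reads to strains. The protein stability index of a peptide is its gate-number-weighted read frequency summed over the gates.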

Sequence	protein stability index (doa10∆)	protein stability index (pdr5∆)	protein stability index (san1∆)	protein stability index (ubr1∆)
GDVSSGLFEKSTVSANH [BRN1]	2.84 ± 0.12	3.31 ± 0.094	2.74 ± 0.11	
RLQQGRRLPMTMFTAEQ [SNF2]	3.09 ± 0.053	3.19 ± 0.048	3.13 ± 0.043	3.27 ± 0.045
IRIYDLGKKKATVDEFP [RPL10]	1.47 ± 0.054	1.51 ± 0.048	1.21 ± 0.098	1.29 ± 0.035
SAFMKFSKAIEWDMLNV [BRR2]	2.15 ± 0.07	1.9 ± 0.072	1.99 ± 0.081	2.04 ± 0.045
NTVPQVTNFNSTNEDQN [SRB5]	2.83 ± 0.09	3.21 ± 0.056	3.02 ± 0.051	2.9 ± 0.051
QACGLVKNLSLMSCISV [RPB2]	1.49 ± 0.073	1.75 ± 0.06	2.44 ± 0.083	2.17 ± 0.075
MIYDDAHEISQGVYGAV [BRR2]	3 ± 0.068	2.88 ± 0.051	2.83 ± 0.049	2.67 ± 0.045
KTIEVTAEINCFMHLLV [RPN3]		1.77 ± 0.26	1.78 ± 0.2	1.67 ± 0.19
NHSNNDIPTIADEHFWA [BRN1]	3.38 ± 0.099	3.11 ± 0.077	3.2 ± 0.059	3.24 ± 0.036
NLNVYIQVFEKPFLKKT [CDC53]	2.2 ± 0.071	2.23 ± 0.056	2.57 ± 0.074	2.63 ± 0.057
SLRETNTTDPLGHTKAA [SIR2]	2.77 ± 0.15	2.7 ± 0.15	2.85 ± 0.13	3.2 ± 0.082
KKNKRALPNIENDIIKL [BRR2]	3.09 ± 0.054	3.36 ± 0.062	3.23 ± 0.04	3.34 ± 0.037
CVYVPNFNASLQLTTNT [SNM1]	2.06 ± 0.038	2.71 ± 0.047	2.52 ± 0.047	2.02 ± 0.065
RHSNALVDILPPDSDSS [RPT3]	2.51 ± 0.076	2.65 ± 0.067	2.69 ± 0.062	2.47 ± 0.056
KIPEREEKSNEVKTPKI [SIR4]		3.24 ± 0.21	3.46 ± 0.21	3.44 ± 0.15
DDFDMLFGENDTSTQAY [NUT1]	3.42 ± 0.08	3.37 ± 0.071	3.51 ± 0.053	3.2 ± 0.055
SVRGAIVGPDLAVLALV [RPS6A]	1.18 ± 0.041	1.46 ± 0.06	1.14 ± 0.11	1.38 ± 0.045
CGFWQPAWRVWLNFLRG [PRP8]	2.52 ± 0.072	2.87 ± 0.12	1.62 ± 0.13	2.35 ± 0.062
QKKIQINKEMGELNSKL [SMC3]		3.34 ± 0.21		3.15 ± 0.13
SNKPIFLFAPELGAINL [SWI1]	2.23 ± 0.062	1.91 ± 0.051	2.08 ± 0.089	2.11 ± 0.046
NIDSLKFNELVKLMKNI [BRR2]	1.37 ± 0.04	1.63 ± 0.067	1.5 ± 0.11	1.8 ± 0.052
EEPSRVDPEQEAHNKAL [RPT4]	3.4 ± 0.16	3.31 ± 0.1	3.46 ± 0.063	3.23 ± 0.11
TYEAIDVPGRELKYELI [RPB2]	3.01 ± 0.15	3.13 ± 0.098	3.1 ± 0.18	3.81 ± 0.16
KTYGISDDIISQVDPIT [FAS2]	1.71 ± 0.16	1.1 ± 0.12		1.06 ± 0.13
ARIALRHLEKEGIIKPI [RPS25A]	2.98 ± 0.092	3.37 ± 0.16	3.06 ± 0.094	3.12 ± 0.085
RLRKRVTIIPLDKIYTR [SMC2]	2 ± 0.073	1.66 ± 0.095	1.84 ± 0.071	1.36 ± 0.051

Sequence	protein stability index (doa10∆)	protein stability index (pdr5∆)	protein stability index (san1∆)	protein stability index (ubr1∆)
TGYDLSNSVFSPDGRNF [PRE10]	2.79 ± 0.072	2.88 ± 0.089	2.52 ± 0.13	2.97 ± 0.087
CVKAIEALFQSRPDILS [YCG1]	3.19 ± 0.083	2.47 ± 0.085	3.03 ± 0.082	3.05 ± 0.087
EGTRNRFSYSPPKEGNY [YMR129W/POM152]	3.19 ± 0.13	3.06 ± 0.062	2.88 ± 0.043	3.13 ± 0.042
KKEEELGVKSRLLEKSE [SNF2]		3.01 ± 0.14	3.06 ± 0.2	3.04 ± 0.29
SKALLREISNFSKGDAD [SRP72]	3.06 ± 0.26	3.41 ± 0.21		3.77 ± 0.2
TIFKYLTDKDAFETHYR [CDC53]	3.27 ± 0.11	3.12 ± 0.086	3.09 ± 0.049	2.98 ± 0.061
AKNETNSESDSKSDSDS [ITC1]	3.01 ± 0.05	3.03 ± 0.049	3.09 ± 0.047	2.88 ± 0.042
REDTPLSQNESTRASTV [ISW2]	2.96 ± 0.067	3.11 ± 0.058	2.96 ± 0.052	2.97 ± 0.048
TESLRVENSVLIEKVDD [YIL149C/MLP2]	2.48 ± 0.17	2.98 ± 0.22	2.63 ± 0.14	2.79 ± 0.074
ESLKKSPIFEVLSDDAK [ARP9]	3.01 ± 0.072	3.15 ± 0.079	3.06 ± 0.073	3.32 ± 0.058
SDTLKEFKIEQNNEQNP [YDL116W/NUP84]	2.79 ± 0.23	3.01 ± 0.15	2.8 ± 0.1	3.3 ± 0.22
EPDREKIKLLTQATSED [RPC19]	2.95 ± 0.2	3.19 ± 0.11	2.73 ± 0.12	3.28 ± 0.11
DLKAQFQELDSKKQRNN [RPN9]	3.21 ± 0.088	3.2 ± 0.08	3.09 ± 0.078	3.33 ± 0.052
DTFYMNVESVGSIPVDQ [RPB3]	2.9 ± 0.075	2.43 ± 0.056	2.67 ± 0.078	2.2 ± 0.12
LNGGLQFVPELKEFTAK [FAS2]	2.75 ± 0.11	2.72 ± 0.11	2.3 ± 0.092	1.83 ± 0.064
SNSSELEPDYQAPFSTS [MED1]	2.7 ± 0.044	2.97 ± 0.057	2.82 ± 0.073	3.05 ± 0.046
KERTKSLEHELKRSTEL [YIL149C/MLP2]	3.04 ± 0.15	3.36 ± 0.28	2.47 ± 0.12	3.12 ± 0.094
EQLSPQDVLQMLGRAGR [BRR2]	3.14 ± 0.27	3.17 ± 0.18	3.48 ± 0.15	3.36 ± 0.12
LSNIEAQFLRSVVHPGE [RPO21]	2.77 ± 0.1	2.73 ± 0.21	2.45 ± 0.1	2.97 ± 0.14
NAIQTEVYGINEESTNE [SIR4]		3.03 ± 0.3	2.9 ± 0.25	
FVKPGTALDAEGAARGT [DIS3]	3.1 ± 0.13	3.4 ± 0.2	3.24 ± 0.095	3.15 ± 0.097
GQCRTELEGSFNKSAEL [YCS4]	3.04 ± 0.09	2.51 ± 0.095	2.6 ± 0.1	2.9 ± 0.081
EALAFTSLVANENDKIY [YDL116W/NUP84]	1.85 ± 0.06	2.4 ± 0.052	2.02 ± 0.12	2.93 ± 0.062
AQDVALAKKWFLQHPDE [PRP8]	2.7 ± 0.089	2.38 ± 0.095	2.33 ± 0.13	2.67 ± 0.077
NVKTSVSQLYRISEKSV [RPO31]	3.04 ± 0.11	3.22 ± 0.1	3.12 ± 0.076	3.16 ± 0.083
